Experimental data published in patent US20210388087A1.

B1: dBBDu183H H93V / dBBDu072L (antibody, name in Kabat numbering, V domains shown)
VH: QVQLVESGGGLVQPGRSLRLSCAASGFTFSNAWMHWVRQAPGKGLEWVAQIKDKGNAYAAYYAPSVKGRFTISRDDSKNSIYLQMNSLKTEDTAVYYCVYVHYASASTVLPAFGVDAWGQGTTVTVSS
VL: DIVMTQSPLSLPVTPGEPASISCQASQELVHMNRNTYLHWYQQKPGQAPRLLIYKVSNRFPGVPDRFSGSGSGTDFTLKISRVEAEDVGVYYCAQGTSVPFTFGQGTKLEIK
B2: dBBDu183H Y94V / dBBDu072L (antibody, name in Kabat numbering, V domains shown)
VH: QVQLVESGGGLVQPGRSLRLSCAASGFTFSNAWMHWVRQAPGKGLEWVAQIKDKGNAYAAYYAPSVKGRFTISRDDSKNSIYLQMNSLKTEDTAVYYCHVVHYASASTVLPAFGVDAWGQGTTVTVSS
VL: DIVMTQSPLSLPVTPGEPASISCQASQELVHMNRNTYLHWYQQKPGQAPRLLIYKVSNRFPGVPDRFSGSGSGTDFTLKISRVEAEDVGVYYCAQGTSVPFTFGQGTKLEIK
B3: dBBDu183H Y97V / dBBDu072L (antibody, name in Kabat numbering, V domains shown)
VH: QVQLVESGGGLVQPGRSLRLSCAASGFTFSNAWMHWVRQAPGKGLEWVAQIKDKGNAYAAYYAPSVKGRFTISRDDSKNSIYLQMNSLKTEDTAVYYCHYVHVASASTVLPAFGVDAWGQGTTVTVSS
VL: DIVMTQSPLSLPVTPGEPASISCQASQELVHMNRNTYLHWYQQKPGQAPRLLIYKVSNRFPGVPDRFSGSGSGTDFTLKISRVEAEDVGVYYCAQGTSVPFTFGQGTKLEIK
B4: dBBDu183H A98V / dBBDu072L (antibody, name in Kabat numbering, V domains shown)
VH: QVQLVESGGGLVQPGRSLRLSCAASGFTFSNAWMHWVRQAPGKGLEWVAQIKDKGNAYAAYYAPSVKGRFTISRDDSKNSIYLQMNSLKTEDTAVYYCHYVHYVSASTVLPAFGVDAWGQGTTVTVSS
VL: DIVMTQSPLSLPVTPGEPASISCQASQELVHMNRNTYLHWYQQKPGQAPRLLIYKVSNRFPGVPDRFSGSGSGTDFTLKISRVEAEDVGVYYCAQGTSVPFTFGQGTKLEIK
B5: dBBDu183H S99V / dBBDu072L (antibody, name in Kabat numbering, V domains shown)
VH: QVQLVESGGGLVQPGRSLRLSCAASGFTFSNAWMHWVRQAPGKGLEWVAQIKDKGNAYAAYYAPSVKGRFTISRDDSKNSIYLQMNSLKTEDTAVYYCHYVHYAVASTVLPAFGVDAWGQGTTVTVSS
VL: DIVMTQSPLSLPVTPGEPASISCQASQELVHMNRNTYLHWYQQKPGQAPRLLIYKVSNRFPGVPDRFSGSGSGTDFTLKISRVEAEDVGVYYCAQGTSVPFTFGQGTKLEIK
B6: dBBDu183H A100V / dBBDu072L (antibody, name in Kabat numbering, V domains shown)
VH: QVQLVESGGGLVQPGRSLRLSCAASGFTFSNAWMHWVRQAPGKGLEWVAQIKDKGNAYAAYYAPSVKGRFTISRDDSKNSIYLQMNSLKTEDTAVYYCHYVHYASVSTVLPAFGVDAWGQGTTVTVSS
VL: DIVMTQSPLSLPVTPGEPASISCQASQELVHMNRNTYLHWYQQKPGQAPRLLIYKVSNRFPGVPDRFSGSGSGTDFTLKISRVEAEDVGVYYCAQGTSVPFTFGQGTKLEIK
B7: dBBDu183H S100aV / dBBDu072L (antibody, name in Kabat numbering, V domains shown)
VH: QVQLVESGGGLVQPGRSLRLSCAASGFTFSNAWMHWVRQAPGKGLEWVAQIKDKGNAYAAYYAPSVKGRFTISRDDSKNSIYLQMNSLKTEDTAVYYCHYVHYASAVTVLPAFGVDAWGQGTTVTVSS
VL: DIVMTQSPLSLPVTPGEPASISCQASQELVHMNRNTYLHWYQQKPGQAPRLLIYKVSNRFPGVPDRFSGSGSGTDFTLKISRVEAEDVGVYYCAQGTSVPFTFGQGTKLEIK
B8: dBBDu183H T100bV / dBBDu072L (antibody, name in Kabat numbering, V domains shown)
VH: QVQLVESGGGLVQPGRSLRLSCAASGFTFSNAWMHWVRQAPGKGLEWVAQIKDKGNAYAAYYAPSVKGRFTISRDDSKNSIYLQMNSLKTEDTAVYYCHYVHYASASVVLPAFGVDAWGQGTTVTVSS
VL: DIVMTQSPLSLPVTPGEPASISCQASQELVHMNRNTYLHWYQQKPGQAPRLLIYKVSNRFPGVPDRFSGSGSGTDFTLKISRVEAEDVGVYYCAQGTSVPFTFGQGTKLEIK
B9: dBBDu183H P100eV / dBBDu072L (antibody, name in Kabat numbering, V domains shown)
VH: QVQLVESGGGLVQPGRSLRLSCAASGFTFSNAWMHWVRQAPGKGLEWVAQIKDKGNAYAAYYAPSVKGRFTISRDDSKNSIYLQMNSLKTEDTAVYYCHYVHYASASTVLVAFGVDAWGQGTTVTVSS
VL: DIVMTQSPLSLPVTPGEPASISCQASQELVHMNRNTYLHWYQQKPGQAPRLLIYKVSNRFPGVPDRFSGSGSGTDFTLKISRVEAEDVGVYYCAQGTSVPFTFGQGTKLEIK
B10: dBBDu183H A100fV / dBBDu072L (antibody, name in Kabat numbering, V domains shown)
VH: QVQLVESGGGLVQPGRSLRLSCAASGFTFSNAWMHWVRQAPGKGLEWVAQIKDKGNAYAAYYAPSVKGRFTISRDDSKNSIYLQMNSLKTEDTAVYYCHYVHYASASTVLPVFGVDAWGQGTTVTVSS
VL: DIVMTQSPLSLPVTPGEPASISCQASQELVHMNRNTYLHWYQQKPGQAPRLLIYKVSNRFPGVPDRFSGSGSGTDFTLKISRVEAEDVGVYYCAQGTSVPFTFGQGTKLEIK
B11: dBBDu183H G100hV / dBBDu072L (antibody, name in Kabat numbering, V domains shown)
VH: QVQLVESGGGLVQPGRSLRLSCAASGFTFSNAWMHWVRQAPGKGLEWVAQIKDKGNAYAAYYAPSVKGRFTISRDDSKNSIYLQMNSLKTEDTAVYYCHYVHYASASTVLPAFVVDAWGQGTTVTVSS
VL: DIVMTQSPLSLPVTPGEPASISCQASQELVHMNRNTYLHWYQQKPGQAPRLLIYKVSNRFPGVPDRFSGSGSGTDFTLKISRVEAEDVGVYYCAQGTSVPFTFGQGTKLEIK
B12: dBBDu183H D101V / dBBDu072L (antibody, name in Kabat numbering, V domains shown)
VH: QVQLVESGGGLVQPGRSLRLSCAASGFTFSNAWMHWVRQAPGKGLEWVAQIKDKGNAYAAYYAPSVKGRFTISRDDSKNSIYLQMNSLKTEDTAVYYCHYVHYASASTVLPAFGVVAWGQGTTVTVSS
VL: DIVMTQSPLSLPVTPGEPASISCQASQELVHMNRNTYLHWYQQKPGQAPRLLIYKVSNRFPGVPDRFSGSGSGTDFTLKISRVEAEDVGVYYCAQGTSVPFTFGQGTKLEIK
B13: dBBDu183H A102V / dBBDu072L (antibody, name in Kabat numbering, V domains shown)
VH: QVQLVESGGGLVQPGRSLRLSCAASGFTFSNAWMHWVRQAPGKGLEWVAQIKDKGNAYAAYYAPSVKGRFTISRDDSKNSIYLQMNSLKTEDTAVYYCHYVHYASASTVLPAFGVDVWGQGTTVTVSS
VL: DIVMTQSPLSLPVTPGEPASISCQASQELVHMNRNTYLHWYQQKPGQAPRLLIYKVSNRFPGVPDRFSGSGSGTDFTLKISRVEAEDVGVYYCAQGTSVPFTFGQGTKLEIK
B14: dBBDu183H H93G / dBBDu072L (antibody, name in Kabat numbering, V domains shown)
VH: QVQLVESGGGLVQPGRSLRLSCAASGFTFSNAWMHWVRQAPGKGLEWVAQIKDKGNAYAAYYAPSVKGRFTISRDDSKNSIYLQMNSLKTEDTAVYYCGYVHYASASTVLPAFGVDAWGQGTTVTVSS
VL: DIVMTQSPLSLPVTPGEPASISCQASQELVHMNRNTYLHWYQQKPGQAPRLLIYKVSNRFPGVPDRFSGSGSGTDFTLKISRVEAEDVGVYYCAQGTSVPFTFGQGTKLEIK
B15: dBBDu183H Y94G / dBBDu072L (antibody, name in Kabat numbering, V domains shown)
VH: QVQLVESGGGLVQPGRSLRLSCAASGFTFSNAWMHWVRQAPGKGLEWVAQIKDKGNAYAAYYAPSVKGRFTISRDDSKNSIYLQMNSLKTEDTAVYYCHGVHYASASTVLPAFGVDAWGQGTTVTVSS
VL: DIVMTQSPLSLPVTPGEPASISCQASQELVHMNRNTYLHWYQQKPGQAPRLLIYKVSNRFPGVPDRFSGSGSGTDFTLKISRVEAEDVGVYYCAQGTSVPFTFGQGTKLEIK
B16: dBBDu183H V95G / dBBDu072L (antibody, name in Kabat numbering, V domains shown)
VH: QVQLVESGGGLVQPGRSLRLSCAASGFTFSNAWMHWVRQAPGKGLEWVAQIKDKGNAYAAYYAPSVKGRFTISRDDSKNSIYLQMNSLKTEDTAVYYCHYGHYASASTVLPAFGVDAWGQGTTVTVSS
VL: DIVMTQSPLSLPVTPGEPASISCQASQELVHMNRNTYLHWYQQKPGQAPRLLIYKVSNRFPGVPDRFSGSGSGTDFTLKISRVEAEDVGVYYCAQGTSVPFTFGQGTKLEIK
B17: dBBDu183H H96G / dBBDu072L (antibody, name in Kabat numbering, V domains shown)
VH: QVQLVESGGGLVQPGRSLRLSCAASGFTFSNAWMHWVRQAPGKGLEWVAQIKDKGNAYAAYYAPSVKGRFTISRDDSKNSIYLQMNSLKTEDTAVYYCHYVGYASASTVLPAFGVDAWGQGTTVTVSS
VL: DIVMTQSPLSLPVTPGEPASISCQASQELVHMNRNTYLHWYQQKPGQAPRLLIYKVSNRFPGVPDRFSGSGSGTDFTLKISRVEAEDVGVYYCAQGTSVPFTFGQGTKLEIK
B18: dBBDu183H Y97G / dBBDu072L (antibody, name in Kabat numbering, V domains shown)
VH: QVQLVESGGGLVQPGRSLRLSCAASGFTFSNAWMHWVRQAPGKGLEWVAQIKDKGNAYAAYYAPSVKGRFTISRDDSKNSIYLQMNSLKTEDTAVYYCHYVHGASASTVLPAFGVDAWGQGTTVTVSS
VL: DIVMTQSPLSLPVTPGEPASISCQASQELVHMNRNTYLHWYQQKPGQAPRLLIYKVSNRFPGVPDRFSGSGSGTDFTLKISRVEAEDVGVYYCAQGTSVPFTFGQGTKLEIK
B19: dBBDu183H A98G / dBBDu072L (antibody, name in Kabat numbering, V domains shown)
VH: QVQLVESGGGLVQPGRSLRLSCAASGFTFSNAWMHWVRQAPGKGLEWVAQIKDKGNAYAAYYAPSVKGRFTISRDDSKNSIYLQMNSLKTEDTAVYYCHYVHYGSASTVLPAFGVDAWGQGTTVTVSS
VL: DIVMTQSPLSLPVTPGEPASISCQASQELVHMNRNTYLHWYQQKPGQAPRLLIYKVSNRFPGVPDRFSGSGSGTDFTLKISRVEAEDVGVYYCAQGTSVPFTFGQGTKLEIK
B20: dBBDu183H S100aG / dBBDu072L (antibody, name in Kabat numbering, V domains shown)
VH: QVQLVESGGGLVQPGRSLRLSCAASGFTFSNAWMHWVRQAPGKGLEWVAQIKDKGNAYAAYYAPSVKGRFTISRDDSKNSIYLQMNSLKTEDTAVYYCHYVHYASAGTVLPAFGVDAWGQGTTVTVSS
VL: DIVMTQSPLSLPVTPGEPASISCQASQELVHMNRNTYLHWYQQKPGQAPRLLIYKVSNRFPGVPDRFSGSGSGTDFTLKISRVEAEDVGVYYCAQGTSVPFTFGQGTKLEIK
B21: dBBDu183H T100bG / dBBDu072L (antibody, name in Kabat numbering, V domains shown)
VH: QVQLVESGGGLVQPGRSLRLSCAASGFTFSNAWMHWVRQAPGKGLEWVAQIKDKGNAYAAYYAPSVKGRFTISRDDSKNSIYLQMNSLKTEDTAVYYCHYVHYASASGVLPAFGVDAWGQGTTVTVSS
VL: DIVMTQSPLSLPVTPGEPASISCQASQELVHMNRNTYLHWYQQKPGQAPRLLIYKVSNRFPGVPDRFSGSGSGTDFTLKISRVEAEDVGVYYCAQGTSVPFTFGQGTKLEIK

target: Human CD137 ECD (human); assay: SPR, vs parent H183/L072
Sequence (chain, as listed by the source limits assumed): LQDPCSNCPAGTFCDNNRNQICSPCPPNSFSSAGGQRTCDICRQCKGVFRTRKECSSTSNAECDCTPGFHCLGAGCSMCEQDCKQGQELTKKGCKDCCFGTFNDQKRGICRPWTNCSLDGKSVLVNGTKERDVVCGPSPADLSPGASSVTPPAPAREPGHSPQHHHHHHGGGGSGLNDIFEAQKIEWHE

Fold change of affinity, 0 fold:
B1
B2
B3
B4
B5
B6
B7
B8
B9
B10
B11
B12
B13
B14
B15
B16
B17
B18
B19
B20
B21
